Assay results: publication PMC6659731

Target: T1, BUD13-2xFLAG (UniProt Q9BRD0 1-619)
T1 sequence: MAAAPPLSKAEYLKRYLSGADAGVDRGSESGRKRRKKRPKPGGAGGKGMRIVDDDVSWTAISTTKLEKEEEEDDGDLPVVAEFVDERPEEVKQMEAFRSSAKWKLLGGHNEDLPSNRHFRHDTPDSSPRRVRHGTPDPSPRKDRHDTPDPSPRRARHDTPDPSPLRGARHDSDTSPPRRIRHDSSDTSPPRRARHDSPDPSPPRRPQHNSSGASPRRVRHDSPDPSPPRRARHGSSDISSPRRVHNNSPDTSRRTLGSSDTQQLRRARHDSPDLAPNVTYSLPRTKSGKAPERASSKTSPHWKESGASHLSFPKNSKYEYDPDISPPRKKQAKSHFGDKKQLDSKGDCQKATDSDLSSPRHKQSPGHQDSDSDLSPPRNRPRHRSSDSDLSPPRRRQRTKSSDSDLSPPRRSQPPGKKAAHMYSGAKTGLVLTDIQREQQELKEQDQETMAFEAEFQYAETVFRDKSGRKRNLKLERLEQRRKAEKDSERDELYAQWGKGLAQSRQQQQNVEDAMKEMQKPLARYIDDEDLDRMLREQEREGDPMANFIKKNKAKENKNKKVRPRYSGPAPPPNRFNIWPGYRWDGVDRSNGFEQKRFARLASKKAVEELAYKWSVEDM
Test: EMSA

## UAAAGUGCUUAUAGUGCAGGUAGUGU (ssRNA) [EMSA miR-20a locus RNA oligo]
  binding result: no binding
